Reference: US20170049848A1, “Target for Firmicutes and Related Bacteria: The PRP Protease” (VIRGINIA COMMONWEALTH UNIVERSITY, priority 2014, published 2017)
Primed or numbered codes have the meaning given here. Where no end group is shown, it is not given here. [ ]: non-standard residue; d: D form. Dnp″ = dinitrophenol quencher on C-terminus; 2Abz = Nc1ccccc1C(=O)O

Experiments:
[1] = Stability of quenched peptide substrate in solution; assay type: physicochemical; details: monitored in solution over time, without enzyme
Text: (§1) Development of Prp Assay In order to study Prp enzymology in vitro, an assay was designed using a quenched fluorescent peptide substrate derived from the cleavage motif on L27. The peptide KLNLQFFASKK (GI:15927225; SEQ ID NO:1) was chosen for its content of hydrophilic residues and fluorophore 2-amino benzoic acid (2-abz) was conjugated to the N terminus, with a dinitrophenol (Dnp) quencher conjugated to the C-terminus. The resulting peptide substrate (2abz-KLNLQFFASKK-Dnp; SEQ ID NO:1) was ordered from United Peptide in Herndon, Va. (now United Biosystems). The substrate was initially resuspended to 2 mM with a buffer containing 25 mM Tris pH8 and 300 mM NaCl. Fluorescence was measured using an excitation wavelength of 325 nm and an emission wavelength of 425 nm using a Photon Technology International QuantaMaster steady-state fluorescent spectrometer. Prp was initially purified and analyzed as a His6-SUMO N-terminal fusion protein from plasmid pEW34. His6-SUMO fusions were also made of PrpC34A (pEW39) and PrpC34S (pEW40).
The amino acid sequence of the substrate was selected to maximize its hydrophilic residue content, aiming for the greatest possible peptide solubility. […] The assay allows us to determine Prp kinetics, and the effects of any mutants on the Km or Kcat.

[2] = tested on: S. aureus strain SA178RI; experiment: Growth curves of S. aureus strains over-expressing Prp, L27 variants or peptide; assay type: cell-based, Staphylococcus aureus; details: T7 plasmid in SA178RI, induced with IPTG, 16 hours at 32° C.; strain still contains native L27 and Prp; compared with wild-type protein or empty vector
Text: Bacterial Culture. All S. aureus strains used in this work are derivatives of the phage-cured, restriction-defective strain RN4220 (Kreiswirth, 1983). The S. aureus expression strain SA178RI carries a T7 RNA polymerase expression cassette under lac operator control (D'Elia, 2006). The plasmid used for expression in SA178RI was pG164, an E. coli-S. aureus shuttle vector carrying the T7 late promoter into which a lac operator, a multiple cloning site, an optimized gram-positive ribosome binding site, and a constitutively expressed copy of the lac repressor gene were introduced (D'Elia, 2006). S. aureus strains were grown in Trypticase Soy Broth (TSB) (Remel, Lenexa, Kans.) or Brain Heart Infusion (BHI) (Remel, Lenexa, Kans.) at 32° C.
For growth curve analysis of mutant over-expression strains, overnight cultures were inoculated directly into media containing inducer and appropriate antibiotics (TSB with 2 μg/ml tetracycline, 30 μg/ml chloramphenicol and 1 mM IPTG) and monitored at OD600 for 16 hours in a 96 well plate format Biotek Microplate reader.
Both L27 and Prp are essential in S. aureus. One common approach is to examine the effects of mutations in essential genes is to over-express mutant allele and assess the resulting phenotypes. […]

[3] = tested on: S. aureus ribosome assembly (70S ribosomes, 50S subunit); experiment: Polysome analysis (sucrose gradient ribosomal subunit profiles) of over-expression strains; assay type: cell-based, Staphylococcus aureus; details: overexpression in S. aureus SA178RI, compared with empty vector
Protocol: Polysome analysis. Overnight cultures of strains for polysome analysis were inoculated into a flask of media containing inducer and appropriate antibiotics (TSB with 2 μg/ml Tet, 30 μg/ml Chl and 1 mM IPTG) beginning at a 1:100 dilution and grown until they reached a Klett reading of 90 or for 4 hours. As noted above, S. aureus expressing Prp C34A will not grow above Klett 50 for over 8 hours, so this strain was grown at a double volume compared to the others so that an equivalent number of cells could be harvested. Cell pellets from at least 100 ml of culture were resuspended in buffer PA (20 mM Tris pH 7.8, 100 mM NH4Cl, 10 mM MgCl2, 6 mM beta mercaptoethanol), broken by bead beating and then cleared by centrifugation for 10 minutes at 13000 rpm at 4° C. The clarified cell lysates were applied to the top of 10-40% sucrose gradients in buffer PA. The gradients were centrifuged for 17 hours at 19000 rpm on an SW-28 rotor at 4° C. Gradients were analyzed for absorbance at 254 nm using a Biocomp Piston Gradient Fractionator with a BIORAD Econo UV Monitor with a Full Scale of 1.0. Data were recorded using DataQ DI-158-UP data acquisition software, as has been previously reported (O'Farrell, 2012). Areas under each peak were calculated using the trapezoid method. […]

[4] = molecular target: Staphylococcus aureus L27 F8A-F9A with C-terminal Myc and His6 tags (un-cleavable), Q2FXT0
[5] = tested on: peptide substrate 2abz-KLNLQFFASKK-Dnp (L27 cleavage motif); experiment: Quenched fluorescent peptide Prp assay; assay type: biochemical, Staphylococcus aureus; details: N-terminal His6-SUMO fusion proteins; excitation 325 nm, emission 425 nm
Text: as §1, with “His6-SUMO fusions were also made of PrpC34A (pEW39) and PrpC34S (pEW40).” left out
In order to test the predictions that our model makes regarding residues important to substrate binding and catalysis and ultimately to search for inhibitors, it was necessary to design a high throughput-capable continuous fluorescent assay. […] In this type of assay, when the substrate is cleaved the fluorophore is released from its quenching partner and fluorescence readings at the fluorophore emission wavelength increase with time. […]

[6] = molecular target: T1, 2abz-KLNLQFFASKK-Dnp quenched fluorescent peptide substrate
T1 chain: KLNLQFFASKK

2abz-KLNLQFFASKK-Dnp ([2Abz]KLNLQFFASKK-{Dnp″}) [quenched fluorescent peptide substrate, 2-amino benzoic acid at N terminus, dinitrophenol quencher at C-terminus]
stability of peptide in solution [1]: stable and did not self-cleave or change fluorescence over time

MLKLNLQFF
effect on S. aureus growth upon overexpression [2]: pronounced lag in the middle of the exponential growth phase
effect on ribosomal subunit profile [3]: no anomalies

B1: Staphylococcus aureus Prp (phage-related ribosomal protease), wild type, untagged (protein)
chain: MITVDITVNDEGKVTDVIMDGHADHGEYGHDIVCAGASAVLFGSVNAIIGLTSERPDINYDDNGGHFHIRSVDTNNDEAQLILQTMLVSLQTIEEEYNENIRLNYK
N-terminal cleavage of L27 (Western blot) [4]: this protein with N-terminal residues […] was no longer cleaved by Prp via Western blot

B2: wild-type Prp: S. aureus phage-related ribosomal protease, cysteine protease that cleaves L27 (protein)
chain: B1 chain
fluorescence increase / catalysis with quenched peptide substrate [5]: fluorescence increase only occurred in the presence of wild type Prp
effect on ribosomal subunit profile [3]: did not deviate significantly from empty vector

B3: His6-SUMO-Prp N-terminal fusion protein (wild type) (protein)
chain: B1 chain
fluorescence increase in the quenched fluorescent peptide assay [6]: fluorescence increase only occurred in the presence of wild type Prp fusion proteins
